The results in this text go back to article PMC2909587.

The target of this experiment is taxol-stabilised pig-brain MTs (pig) (UniProt P02550). Description: co-sedimentation.

pKd: −log10 of the molar value.

As for “CENP-Q (from UniProt Q7L2Z9 1-268) (natural protein)”, the pKd (usually the Kd on a negative log10 scale, so that one unit is a factor of ten) was 6.15 and the stoichiometry N (commonly a count of units in the complex or per binding partner) was 6 CENP-Q:MT.
